T1: P126(AA): PlGF mutant #1 (human)
T1 chain: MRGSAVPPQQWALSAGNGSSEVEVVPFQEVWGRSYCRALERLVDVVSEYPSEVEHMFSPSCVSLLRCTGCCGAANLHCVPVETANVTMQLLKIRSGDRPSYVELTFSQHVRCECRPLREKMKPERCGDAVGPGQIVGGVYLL

T2: P126(DE): recombinant PlGF wild type (human)
T2 construct: also called unaltered PlGF
T2 chain: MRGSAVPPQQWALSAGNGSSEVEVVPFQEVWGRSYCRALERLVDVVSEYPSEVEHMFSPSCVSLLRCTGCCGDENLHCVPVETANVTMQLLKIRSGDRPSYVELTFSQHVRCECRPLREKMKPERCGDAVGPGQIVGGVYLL

B1: P126(GAA): PlGF mutant #2 (ligand)
chain: MRGSAVPPQQWALSAGNGSSEVEVVPFQEVWGRSYCRALERLVDVVSEYPSEVEHMFSPSCVSLLRCTGCGGAANLHCVPVETANVTMQLLKIRSGDRPSYVELTFSQHVRCECRPLREKMKPERCGDAVGPGQIVGGVYLL
B2: Full length sFlt (soluble fms-like tyrosine kinase 1, sFlt-1), Scios Inc. Lot# 9225-89 (receptor)
chain: SKLKDPELSLKGTQHIMQAGQTLHLQCRGEAAHKWSLPEMVSKESERLSITKSACGRNGKQFCSTLTLNTAQANHTGFYSCKYLAVPTSKKKETESAIYIFISDTGRPFVEMYSEIPEIIHMTEGRELVIPCRVTSPNITVTLKKFPLDTLIPDGKRIIWDSRKGFIISNATYKEIGLLTCEATVNGHLYKTNYLTHRQTNTIIDVQISTPRPVKLLRGHTLVLNCTATTPLNTRVQMTWSYPDEKNKRASVRRRIDQSNSHANIFYSVLTIDKMQNKDKGLYTCRVRSGPSFKSVNTSVHIYDKAFITVKHRKQQVLETVAGKRSYRLSMKVKAFPSPEVVWLKDGLPATEKSARYLTRGYSLIIKDVTEEDAGNYTILLSIKQSNVFKNLTATLIVNVKPQIYEKAVSSFPDPALYPLGSRQILTCTAYGIPQPTIKWFWHPCNHNHSEARCDFCSNNEESFILDADSNMGNRIESITQRMAIIEGKNKMASTLVVADSRISGIYICIASNKVGTVGRNISFYITDVPNGFHVNLEKMPTEGEDLKLSCTVNKFLYRDVTWILLRTVNNRTMHYSISKQKMAITKEHSITLNLTIMNVSLQDSGTYACRARNVYTGEEILQKKEITIRGEHCNKKAVFSRISKFKSTRNDCTTQSNVKH
notes: also called recombinant sFlt

Columns and labels:
[1] = target: B2; assay: ELISA, sFlt coated 0.5 ug/mL, PlGF in solution, detected with Rat-4
Experimental: High-binding microtiter plate was coated with recombinant sFlt at 0.5 ug/mL and blocked with BSA/PBS
Standard ELISA procedure consists of 1st plate incubation with diluted P126(DE) or P126(AA) or P126(GAA) in casein/PBS at various concentration, 2nd plate incubation with monoclonal anti-PlGF Rat-4 solution at 0.1 ug/mL, 3rd plate incubation with HRP conjugated donkey anti-Rat IgG at 1:4K dilution in casein/PBS and 4th plate incubation with 100 uL OPD substrate development for 25 C/30 min. 1st, 2nd and 3rd plate incubation step is at 37 C/15-20 min/shake; 6 times plate washing between each step. 25 uL stop solution after 4th incubation and record OD at 492 nm.

P126(AA): PlGF mutant #1 [2] = target: T1, P126(AA): PlGF mutant #1; assay: ELISA, coated PlGF, sFlt at 200 ng/mL, detected with RD-1 + RD-2 anti-sFlt
[3] = target: B1; assay: as above
[4] = target: T2, P126(DE): recombinant PlGF wild type; assay: as above
P126(AA): PlGF mutant #1 [5] = target: T1, P126(AA): PlGF mutant #1; assay: ELISA, coated PlGF, sFlt at 600 ng/mL, detected with RD-1 + RD-2 anti-sFlt
[6] = target: B1; assay: as above
[7] = target: T2, P126(DE): recombinant PlGF wild type; assay: as above
P126(AA): PlGF mutant #1 [8] = target: T1, P126(AA): PlGF mutant #1; assay: ELISA, coated PlGF, sFlt at 66.67 ng/mL, detected with RD-1 + RD-2 anti-sFlt
[9] = target: B1; assay: as above
[10] = target: T2, P126(DE): recombinant PlGF wild type; assay: as above
P126(AA): PlGF mutant #1 [11] = target: T1, P126(AA): PlGF mutant #1; assay: ELISA, coated PlGF, sFlt at 1800 ng/mL, detected with RD-1 + RD-2 anti-sFlt
[12] = target: B1; assay: as above
[13] = target: T2, P126(DE): recombinant PlGF wild type; assay: as above

binding result [1]	OD at 492 nm (P126(AA): PlGF mutant #1 [2])	OD at 492 nm [3]	OD at 492 nm [4]	OD at 492 nm (P126(AA): PlGF mutant #1 [5])	OD at 492 nm [6]	OD at 492 nm [7]	OD at 492 nm (P126(AA): PlGF mutant #1 [8])	OD at 492 nm [9]	OD at 492 nm [10]	OD at 492 nm (P126(AA): PlGF mutant #1 [11])	OD at 492 nm [12]	OD at 492 nm [13]	Binder
no binding (tested: 1000 ng/mL)	–	–	–	–	–	–	–	–	–	–	–	–	B1
–	0.115 OD	0.095 OD	0.833 OD	0.182 OD	0.101 OD	1.83 OD	0.143 OD	0.088 OD	0.347 OD	0.21 OD	0.15 OD	> 3 OD	B2
